Reference: the DeepSol protein solubility set

assay: soluble on expression in E. coli; label from the status in PepcDB or PDB records

With “MSRAVSRLIEACGRLSITQRSQMHFFRPPPTSSILPPLVTPSTTIVEKSIELPSLENPQQIYTFPTLHRSPIVAPGAILTEILEKLAPTAEKGFLIAPGTPNKSPMWLSPRLLTIRRKKMKKHKRRRRYDRDFFKYQKYHREKKLKSEREFQKRMKSLLTELEAFNPEKYVKDTIRMANKEWQDELAPTGRKLYPHWSRFMSLEQLYGLPKSEYIDKRAGLPTPEEAEQIKALKEKYAKLYRKK” as the sequence, how does the “soluble on expression in E. coli” value read?
The value was “soluble”.

For “MSRFFHAKEDSDSDTSSSEDEVEDQKVNKSAKFRDDLDFMAGPEEDEKRVVRAQKDKKFDELKGIIKQNRDAKSNKDLNRLLTGFDSLAKAYDKSKTVFQRQNVANPRFYIRSLVEIEDYVNKLWDDKDAKSALSKNNAKALPPLRQKLKKYIKDQQLQDLVTDYRVNPDEDGYETPEDEDDDDFGEVSESKAEKSPGKPSEKAAVSDSDSDSDDDDSSNWSSEPESNSSDDEDSVTKMEQLRRYFLKKEFRVESKDDKKEKKKRVIRVKEAVEEDDDADWTPVNREKSVVHFDPKEEVTHDVMIKKLNEVMSARGKRTTDRNQHVANLRKLLEVSEEKELGLGINVKISFCIISALFELNAKISDHMEYETFMTTLQTVNSLLDLLIGTDRVKLSVTYAEEDENLKDDTQEYRIQGSILIAVQRLDGELAKILQNADCHSNDYIEKLKAEKDMCSLIEKAEKYVELRNDSGIFDKHEVCKVYMMRIEHAYYKYQDQNEEDAGKLMDYLCNKIYTLDDEKRLRQRAMLCHVYYLAVHDKWHRARDLLLMSHMQAIVDHSDVDTQILYNRTICQLGLCAFRHGFIREAHQGLSEIQNTQRAKELLAQAVGTRQHEKTAEQEKIDRSRQVPYHMHINVELMECVYLICSMLLEIPHMASCEFEMRRRMLSRSFHYQLKQSEKASLTGPPENTREHVVAASKAMLNGDWKKCQDYIVNDKMNQKVWNLFHNAETVKGMVVRRIQEESLRTYLLTYSTVYATVSLKKLADLFELSKKDVHSIISKMIIQEELSATLDEPTDCLIMHRVEPSRLQMLALNLSDKLQTLAENNEQILEPRTGRGGYQGPGSWFPGRNERQGDKQKGSGGYQGERRGGQGQDGKRGNWGSQGGQQRRHPQKPRAF”, which “soluble on expression in E. coli” value is on record?
The value was “not soluble”.

With “MSRFNPSPVSLSVTLGLMFSASAFAQDATKTDETMVVTAAGYAQVIQNAPASISVISREDLESRYYRDVTDALKSVPGVTVTGGGDTTDISIRGMGSNYTLILVDGKRQTSRQTRPNSDGPGIEQGWLPPLQAIERIEVIRGPMSTLYGSDAIGGVINIITRKDQQQWSGNVQLSTVVQENRASGDEQSANFFVTGPLSDALSLQVYGQTTQRDEDEIEHGYGDKSLRSLTSKLNYQLNPDHQLQLEAGVSAQDRENNVGKSAQSSGCRGTCSNTDNQYRRNHVAVSHQGDWQDVGQSDTYLQYEENTNKSREMSIDNTVFKSTLVAPIGEHMLSFGVEGKHESLEDKTSNKISSRTHISNTQWAGFIEDEWALAEQFRLTFGGRLDHDKNYGSHFSPRVYGVWNLDPLWTVKGGVSTGFRAPQLREVTPDWGQVSGGGNIYGNPDLKPETSINKELSLMYSTGSGLAASLTAFHNDFKDKITRVACPANICTAGPNQWGAAPTYRVNIDEAETYGAEATLSLPITESVELSSSYTYTHSEQKSGNFAGRPLLQLPKHLFNANLSWQTTDRLNSWANLNYRGKEMQPEGGASNDDFIAPSYTFIDTGVTYALTDTATIKAAVYNLFDQEVNYAEYGYVEDGRRYWLGLDIAF” as the sequence, how does the “soluble on expression in E. coli” value read?
Its value is “not soluble”.

For “MSRFWSRWYSGLVSCTARVIMIDLNHLDTIANRLSDLLPPALYESRGELQTLFKDVLQAGLAKLDLVTREEFEIQRVILLSTREKLETLLHTLVLLEDRLTDQGKNLEHHHHHH”, which “soluble on expression in E. coli” value is on record?
The value was “not soluble”.

With “MSRIVAIDYGRKRTGIAVSDTLQLIANGLTTVPTHELLNFIGGYVAKEPVERIIIGLPKQMNNEASENMKNIEPFVRSLKKRFPELPVEYVDERFTSVLAHRTMLEAGLKKKDRQNKALVDEISATIILQTYLESKRF” as the sequence, how does the “soluble on expression in E. coli” value read?
The value was “not soluble”.

Which “soluble on expression in E. coli” value does the source give for “MSRIVNVKLSLKRYEYEKPFHITGSVSSESRNVEVEIVLESGVKGYGEASPSFRVNGERVEALLAIENAVREMITGIDVRNYARIFEITDRLFGFPSLKAAVQFATLDALSQELGTQVCYLLGGKRDEIETDKTVGIDTVENRVKEAKKIFEEGFRVIKIKVGENLKEDIEAVEEIAKVTRGAKYIVDANMGYTQKEAVEFARAVYQKGIDIAVYEQPVRREDIEGLKFVRFHSPFPVAADESARTKFDVMRLVKEEAVDYVNIKLMKSGISDALAIVEIAESSGLKLMIGCMGESSLGINQSVHFALGTGAFEFHDLDSHLMLKEEVFRGKFIQDGPRMRVKDQ” here?
The value was “soluble”.
